# Assay results from patent US20240026330A1 (FLUX THERAPEUTICS, published 2024).
# B1: FireflyLuciferase-P2A-a_alfatag_nano-Cezanne (other)
# chain: MEDAKNIKKGPAPFYPLEDGTAGEQLHKAMKRYALVPGTIAFTDAHIEVDITYAEYFEMSVRLAEAMKRYGLNTNHRIVVCSENSLQFFMPVLGALFIGVAVAPANDIYNERELLNSMGISQPTVVFVSKKGLQKILNVQKKLPIIQKIIIMDSKTDYQGFQSMYTFVTSHLPPGFNEYDFVPESFDRDKTIALIMNSSGSTGLPKGVALPHRTACVRFSHARDPIFGNQIIPDTAILSVVPFHHGFGMFTTLGYLICGFRVVLMYRFEEELFLRSLQDYKIQSALLVPTLFSFFAKSTLIDKYDLSNLHEIASGGAPLSKEVGEAVAKRFHLPGIRQGYGLTETTSAILITPEGDDKPGAVGKVVPFFEAKVVDLDTGKTLGVNQRGELCVRGPMIMSGYVNNPEATNALIDKDGWLHSGDIAYWDEDEHFFIVDRLKSLIKYKGYQVAPAELESILLQHPNIFDAGVAGLPDDDAGELPAAVVVLEHGKTMTEKEIVDYVASQVTTAKKLRGGVVFVDEVPKGLTGKLDARKIREILIKAKKGGKIAVTRLKGSGATNFSLLKQAGDVEENPGPRSGTGSSGEVQLQESGGGLVQPGGSLRLSCTASGVTISALNAMAMGWYRQAPGERRVMVAAVSERGNAMYRESVQGRFTVTRDFTNKMVSLQMDNLKPEDTAVYYCHVLEDRVDSFHDYWGQGTQVTVSSGAPGSGPPSFSEGSGGSRTPEKGFSDREPTRPPRPILQRQDDIVQEKRLSRGISHASSSIVSLARSHVSSNGGGGGSNEHPLEMPICAFQLPDLTVYNEDFRSFIERDLIEQSMLVALEQAGRLNWWVSVDPTSQRLLPLATTGDGNCLLHAASLGMWGFHDRDLMLRKALYALMEKGVEKEALKRRWRWQQTQQNKESGLVYTEDEWQKEWNELIKLASSEPRMHLGTNGANCGGVESSEEPVYESLEEFHVFVLAHVLRRPIVVVADTMLRDSGGEAFAPIPFGGIYLPLEVPASQCHRSPLVLAYDQAHFSALVSMEQKENTKEQAVIPLTDSEYKLLPLHFAVDPGKGWEWGKDDSDNVRLASVILSLEVKLHLLHSYMNVKWIPLSSDAQAPLAQ
# Columns and labels:
# Assay in all cases: cell-based or functional assay
# [1] = molecular target: T1, LYRM7-nanoluc-alfa-tag-fusion
# T1 chain: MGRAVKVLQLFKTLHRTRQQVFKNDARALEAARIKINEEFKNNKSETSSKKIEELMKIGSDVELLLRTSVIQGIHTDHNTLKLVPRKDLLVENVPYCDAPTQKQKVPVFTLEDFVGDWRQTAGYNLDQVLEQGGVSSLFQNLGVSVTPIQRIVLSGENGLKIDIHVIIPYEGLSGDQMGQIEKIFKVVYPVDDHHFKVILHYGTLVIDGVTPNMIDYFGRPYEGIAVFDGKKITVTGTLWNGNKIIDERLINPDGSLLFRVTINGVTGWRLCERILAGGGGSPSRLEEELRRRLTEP
# [2] = molecular target: COX6A2-nanoluc-alfa-tag-fusion
# [3] = molecular target: T2, UQCC2-nanoluc-alfa-tag-fusion
# T2 chain: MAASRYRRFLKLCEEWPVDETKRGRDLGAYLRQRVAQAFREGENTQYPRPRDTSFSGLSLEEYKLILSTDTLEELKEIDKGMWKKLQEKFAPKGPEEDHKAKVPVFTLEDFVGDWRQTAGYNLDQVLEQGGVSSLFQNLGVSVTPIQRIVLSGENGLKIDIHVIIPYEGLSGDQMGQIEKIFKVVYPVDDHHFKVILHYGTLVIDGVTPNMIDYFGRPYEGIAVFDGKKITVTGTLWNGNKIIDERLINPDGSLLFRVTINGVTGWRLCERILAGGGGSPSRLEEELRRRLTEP
binder,measurement,setting,value
B1,"fold increase in LYRM7 protein expression (NLuc signal divided by firefly luciferase signal, relative to control)",[1],1.39 fold
same,"fold increase in COX6A2 protein expression (NLuc signal divided by firefly luciferase signal, relative to control)",[2],1.48 fold
same,"fold increase in UQCC2 protein expression (NLuc signal divided by firefly luciferase signal, relative to control)",[3],2.87 fold
